Assay results taken from IntAct's records for PubMed 15282298.

B1: Meiosis-inducing protein 1 (Saccharomyces cerevisiae), P21190 (parent)
chain: MQADMHGKLHAALEDGFFLFPFEQQQQPNIYYDTTTDQEDRPCFSFGSTISPRSWHFEKSDKIASSQLQNLVHTQPIHLINPQILFNEEFLNLENIDSQPISKETKTTKDCTMATGPERGKKSSESTRSSSLSSLFSNDESASTFHSSFNNHDNFQKSNRNGDDIDISDTIKYETNTNAQKDIKIFQENFEFNEFPYTQDFYPYTTNYTYSKPTNIHESINSKNTDSYSQYQDQFPPHTDNIHSFNNRHYSNHKSTNCNYYNNTSNNNNASDNVYEADPFIDEPQVPSYYYPLEIAFDVEKSPPPSLQKLNSKELEFLKKLNSKLSRYAAAYSFSSSNDQDYYDKVRFQEISYKFSKTYS
partner: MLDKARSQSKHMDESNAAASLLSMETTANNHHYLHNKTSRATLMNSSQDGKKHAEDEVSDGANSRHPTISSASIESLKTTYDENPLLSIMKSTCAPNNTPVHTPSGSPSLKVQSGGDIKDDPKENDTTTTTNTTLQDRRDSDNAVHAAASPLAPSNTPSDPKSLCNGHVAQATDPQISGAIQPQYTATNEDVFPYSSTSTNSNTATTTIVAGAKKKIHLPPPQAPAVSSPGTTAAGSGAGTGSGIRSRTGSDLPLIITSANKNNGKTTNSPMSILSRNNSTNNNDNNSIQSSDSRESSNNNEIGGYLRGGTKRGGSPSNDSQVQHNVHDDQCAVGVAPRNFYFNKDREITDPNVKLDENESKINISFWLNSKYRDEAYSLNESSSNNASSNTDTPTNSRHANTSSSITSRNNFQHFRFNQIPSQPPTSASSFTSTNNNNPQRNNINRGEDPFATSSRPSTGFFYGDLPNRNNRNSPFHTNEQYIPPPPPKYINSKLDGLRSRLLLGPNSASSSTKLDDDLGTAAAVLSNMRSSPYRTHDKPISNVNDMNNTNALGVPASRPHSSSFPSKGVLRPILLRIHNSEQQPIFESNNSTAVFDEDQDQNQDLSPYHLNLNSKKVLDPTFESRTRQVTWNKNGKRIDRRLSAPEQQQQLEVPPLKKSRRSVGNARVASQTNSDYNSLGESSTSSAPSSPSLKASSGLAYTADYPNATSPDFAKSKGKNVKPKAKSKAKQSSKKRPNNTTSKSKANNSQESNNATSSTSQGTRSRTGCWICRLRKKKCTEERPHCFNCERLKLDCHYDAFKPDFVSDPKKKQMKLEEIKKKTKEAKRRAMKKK

Variants of: B1
Conditions: with ume6_yeast UME6, P39001

Variant	effect of a mutation on the interaction
S306A	with no effect
S302A	with no effect
S302D	with no effect
S333A	with no effect

Other lines, results leading:

effect of a mutation on the interaction	Variant
with no effect	S337A
decreasing interaction strength	Y359F
with no effect	S352A;S356A;S360A
